The results in this text go back to publication PMC6697693, “head-bent resistant Hsc70 variants show reduced Hsp40 affinity and altered protein folding activity” (Scientific Reports, 2019).

Series [1] has as its target T1, wild type Hsc70 (nematode Hsc70, HSP-1) (C. elegans, UniProt P09446 1-640).
T1 construct: Hsc70 (HSP-1) of C. elegans, encoded by hsp-1, the sole functional Hsc70-like protein of the nematode; About 70 kDa by ultracentrifugation; also called Hsc70 wild type; CeHsc70; source: expressed from pET28b-Hsc70, purified (Ni-NTA, ion-exchange, size exclusion chromatography)
The experiment in a line: AUC; sedimentation velocity with fluorescence detection, 300 nM *BAG-1 with 2 µM Hsc70 variant, 42,000 rpm, 20 °C, 40 mM HEPES/KOH pH 7.5, 150 mM KCl, 1 mM DTT, 5 mM MgCl2; without nucleotide, and with ADP (complex diminished). Conditions: both partners purified.

In another series the target is T2, Hsc70 D233N (C. elegans, UniProt P09446 1-640, D233N).
T2 construct: Hsc70 (HSP-1) of C. elegans, encoded by hsp-1, with the suppressor mutation D233N; Mutation was found in a mutagenesis screen as a suppressor of unc-23(e25); source: expressed from mutated pET28b-Hsc70 (QuickChange PCR), purified (Ni-NTA, ion-exchange, size exclusion chromatography)
T2 sequence (P09446 whole entry D233N): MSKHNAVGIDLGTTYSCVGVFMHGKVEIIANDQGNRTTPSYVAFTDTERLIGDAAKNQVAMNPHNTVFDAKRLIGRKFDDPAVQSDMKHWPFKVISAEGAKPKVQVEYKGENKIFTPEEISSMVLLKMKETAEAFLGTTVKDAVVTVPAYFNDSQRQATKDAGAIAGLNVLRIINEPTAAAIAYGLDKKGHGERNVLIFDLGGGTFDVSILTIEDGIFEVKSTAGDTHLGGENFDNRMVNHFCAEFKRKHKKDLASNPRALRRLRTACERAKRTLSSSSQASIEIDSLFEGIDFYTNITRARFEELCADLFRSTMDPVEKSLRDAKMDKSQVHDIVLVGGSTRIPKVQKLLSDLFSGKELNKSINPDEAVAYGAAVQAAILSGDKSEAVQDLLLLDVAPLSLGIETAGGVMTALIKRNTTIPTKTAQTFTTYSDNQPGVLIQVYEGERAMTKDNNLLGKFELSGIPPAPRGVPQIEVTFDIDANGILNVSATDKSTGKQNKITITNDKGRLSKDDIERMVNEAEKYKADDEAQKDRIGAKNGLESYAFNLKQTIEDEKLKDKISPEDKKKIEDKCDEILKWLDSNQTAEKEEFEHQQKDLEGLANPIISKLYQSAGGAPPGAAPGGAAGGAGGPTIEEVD
The description is as above. Conditions: both partners purified.

The next series concerns the target T3, Hsc70 A379V (C. elegans, UniProt P09446 1-640, A379V).
T3 construct: Hsc70 (HSP-1) of C. elegans, encoded by hsp-1, with the suppressor mutation A379V; Mutation was found in a mutagenesis screen as a suppressor of unc-23(e25); source: expressed from mutated pET28b-Hsc70 (QuickChange PCR), purified (Ni-NTA, ion-exchange, size exclusion chromatography)
The series is described as above. To be noted: both partners purified.

In another series the target is T4, Hsc70 D384N (C. elegans, UniProt P09446 1-640, D384N).
T4 construct: Hsc70 (HSP-1) of C. elegans, encoded by hsp-1, with the suppressor mutation D384N; Mutation was identified as a suppressor of unc-23(ok1408); source: expressed from mutated pET28b-Hsc70 (QuickChange PCR), purified (Ni-NTA, ion-exchange, size exclusion chromatography)
T4 sequence (P09446 whole entry D384N): as the sequence (P09446 whole entry D233N) above, with N233D, D384N counted along it
The description is as above. Conditions: both partners purified.

Series [2] concerns the molecule itself. The experiment in a line: AUC; sedimentation velocity, UV/VIS optics, 0.5 mg/mL protein; dc/dt plots and UltraScan II analysis; oligomerization status of Hsc70 variants.

T3 sequence (P09446 whole entry A379V): as the sequence (P09446 whole entry D233N) above, with N233D, A379V counted along it
T1 sequence (P09446 whole entry): as the sequence (P09446 whole entry D233N) above, with N233D counted along it

B1: BAG-1 (nematode nucleotide exchange factor), fluorescently labelled (natural protein, C. elegans, UniProt O44739 1-210, looked up)
chain: MKVNVSCSSVQTTIDILEENQGEDESILTLGQLRDRIATDNDVDVETMKLLHRGKFLQGADDVSLSTLNFKENDKIIVMGGKNALVDDAGFKMLMQYEKHNLSNLQKAYDLNLRDVADLERGFLEKPKQVEMGKKLEKKVKYFNEEAERHLETLDGMNIITETTPENQAKRNREKRKTLVNGIQTLLNQNDALLRRLQEYQSVLNGDIPE
modifications: ATTO 488 C5-maleimide at its cysteine residue
notes: BAG-1, nucleotide exchange factor of Hsc70 in C. elegans; unlabelled BAG-1 was used in the ATPase assays
On to B1, for which the binding result (in series [1]; in the series with Hsc70 D233N; with Hsc70 A379V; with Hsc70 D384N) was “binds” each time.

B2: Hsc70 S321F (natural protein)
chain: not shown
notes: Hsc70 (HSP-1) of C. elegans, encoded by hsp-1, with the suppressor mutation S321F; forms heterogeneous oligomers; source: expressed from mutated pET28b-Hsc70 (QuickChange PCR), purified (Ni-NTA, ion-exchange, size exclusion chromatography)
For B2, the binding result in series [2] was “binds”.
